Legend:
Assay in all cases: EMSA
[1] = target: Rad52 (K43,44,253R) (Saccharomyces cerevisiae, UniProt P06778 1-471, K10R;K11R;K220R)
[2] = target: Rad52 (K43,44R) (Saccharomyces cerevisiae, UniProt P06778 1-471, K10R;K11R)
[3] = target: Rad52 (K253R) (Saccharomyces cerevisiae, UniProt P06778 1-471, K220R)
[4] = target: Rad52 (Saccharomyces cerevisiae, UniProt P06778)

Measured: binding result

AGCTACCATGCCTGCACGAATTAAGCAATTCGTAATCATGGTCATAGCT (ssDNA) [49-mer ssDNA (Oligo-3)]
binds: all assays above

From article PMC2919706
